Legend:
Assay in all cases: IEDB peptide-MHC binding, purified MHC/competitive/radioactivity; filed as Kd, often an IC50 or EC50 that approximates it; ≥ and ≤ were set here for values at or beyond the usual limits of such assays
HLA-A*11:01 = target: HLA-A*11:01
HLA-A*03:01 = target: HLA-A*03:01
HLA-A*31:01 = target: HLA-A*31:01
HLA-A*33:01 = target: HLA-A*33:01
HLA-A*68:01 = target: HLA-A*68:01
[1] = source organism: Dengue virus 4 Philippines/H241/1956
[2] = source organism: Vaccinia virus WR
[3] = source organism: Dengue virus 3 Martinique/1243/1999
[4] = source organism: SARS coronavirus Tor2
[5] = source organism: Triticum aestivum
[6] = source organism: Mammarenavirus brazilense
[7] = source organism: Dengue virus 2 Jamaica/1409/1983
[8] = source organism: Vaccinia virus Copenhagen

Row | Sequence | Kd (HLA-A*03:01; [2]) [µM] | Kd (HLA-A*11:01; [2]) [µM] | Kd (HLA-A*31:01; [2]) [µM] | Kd (HLA-A*33:01; [2]) [µM] | Kd (HLA-A*68:01; [2]) [µM] | also measured
1 | ETNMITLLVK |  |  |  |  |  | Kd (HLA-A*11:01; [1]): 1.08 µM
2 | VVRDFENYVK | 0.0249 | 0.0307 | 0.269 | 8.05 | 0.0713 | 
3 | STDVNKQNK | 8.97 | 0.0119 | 1.18 | ≥ 77.7 | 0.29 | 
4 | TSIFAGHLK |  |  |  |  |  | Kd (HLA-A*11:01; [3]): 0.0391 µM; Kd (HLA-A*68:01; [3]): 0.0043 µM
5 | SLFYTFAISY | 0.00362 | 0.00918 | 5.78 | ≥ 31.8 | 1.32 | 
6 | KASTISWMMK | 0.045 | 0.00549 | 0.088 | ≥ 50.4 | 0.134 | 
7 | VLGLGLSLK | 0.00673 | 0.0257 | 1.57 | ≥ 26.8 | 9.65 | 
8 | YFISIYSRPK | 0.22 | 0.853 | 0.112 | 0.107 | 0.0252 | 
9 | FMDEIDHESY | 15.8 | ≥ 36.4 | ≥ 22 | ≥ 43.7 | ≥ 59.2 | 
10 | STAWLCALGK |  |  |  |  |  | Kd (HLA-A*03:01; [4]): 0.0216 µM; Kd (HLA-A*11:01; [4]): 0.00035 µM; Kd (HLA-A*31:01; [4]): 0.271 µM; Kd (HLA-A*33:01; [4]): 9.43 µM; Kd (HLA-A*68:01; [4]): 0.0048 µM
11 | LMTLMKGASK |  |  |  |  |  | Kd (HLA-A*03:01; [1]): 0.273 µM
12 | KSGGLSSGFY | 2.57 | 5.21 | ≥ 70 | ≥ 70 | ≥ 70.2 | 
13 | STGNYNYKYR |  |  |  |  |  | Kd (HLA-A*03:01; [4]): 2.76 µM; Kd (HLA-A*11:01; [4]): 1.38 µM; Kd (HLA-A*31:01; [4]): 0.0347 µM; Kd (HLA-A*33:01; [4]): 1.09 µM; Kd (HLA-A*68:01; [4]): 0.244 µM
14 | VLCVKKFYK | 0.0252 | 0.00882 | 0.00132 | 0.162 | 0.344 | 
15 | LQGPPGTGK |  |  |  |  |  | Kd (HLA-A*03:01; [4]): 0.459 µM; Kd (HLA-A*11:01; [4]): 0.0401 µM; Kd (HLA-A*31:01; [4]): 1.26 µM; Kd (HLA-A*33:01; [4]): ≥ 77.7 µM; Kd (HLA-A*68:01; [4]): 10.9 µM
16 | GALHLYFDK |  |  |  |  |  | Kd (HLA-A*03:01; [4]): 0.486 µM; Kd (HLA-A*11:01; [4]): 0.000928 µM; Kd (HLA-A*31:01; [4]): 0.143 µM; Kd (HLA-A*33:01; [4]): 15.4 µM; Kd (HLA-A*68:01; [4]): 4.97 µM
17 | TMKAIEKDR | ≥ 25.9 | 2.62 | 0.227 | 0.675 | 0.511 | 
18 | TTAFFNTCK | 0.0462 | 0.000492 | 0.226 | 0.997 | 0.000947 | 
19 | TTRLENVMWK |  |  |  |  |  | Kd (HLA-A*11:01; source organism: Dengue virus 4 Dominica/814669/1981): 0.59 µM

Row | Sequence | Kd (HLA-A*03:01; [2]) [µM] | Kd (HLA-A*11:01; [2]) [µM] | Kd (HLA-A*31:01; [2]) [µM] | Kd (HLA-A*33:01; [2]) [µM] | Kd (HLA-A*68:01; [2]) [µM] | also measured
20 | VVLQQHNIVH |  |  |  |  |  | Kd (HLA-A*03:01; [5]): 2.02 µM; Kd (HLA-A*11:01; [5]): 4.63 µM; Kd (HLA-A*31:01; [5]): 5.2 µM; Kd (HLA-A*33:01; [5]): ≥ 28.3 µM; Kd (HLA-A*68:01; [5]): ≥ 29.6 µM
21 | ETAKVIKLVK | 1.61 | 0.192 | 9.31 | ≥ 70 | 0.0214 | 
22 | GVRFFFYTSK |  |  |  |  |  | Kd (HLA-A*03:01; [4]): 0.0889 µM; Kd (HLA-A*11:01; [4]): 0.0446 µM; Kd (HLA-A*31:01; [4]): 0.488 µM; Kd (HLA-A*33:01; [4]): 11 µM; Kd (HLA-A*68:01; [4]): 0.121 µM
23 | KCFEKFLEPK |  |  |  |  |  | Kd (HLA-A*03:01; [6]): 1.27 µM; Kd (HLA-A*11:01; [6]): 16.9 µM; Kd (HLA-A*31:01; [6]): 1.03 µM; Kd (HLA-A*33:01; [6]): ≥ 23.1 µM; Kd (HLA-A*68:01; [6]): 3.47 µM
24 | LQMAGVEVR | 13.9 | 5.76 | 0.218 | 6.15 | 2.38 | 
25 | VTCAMFTCKK |  |  |  |  |  | Kd (HLA-A*03:01; [7]): 0.0867 µM; Kd (HLA-A*11:01; [7]): 0.0977 µM
26 | IVQLPKRGVR | 15.8 | ≥ 25.7 | 1.23 | 12.5 | 19 | 
27 | SFIISTLNK | 0.0574 | 0.00535 | 0.0051 | 8.11 | 0.00998 | 
28 | HIKVDHPDK | 5.15 | 5.68 | 0.158 | 0.298 | 1.96 | 
29 | MLVYCFLGY |  |  |  |  |  | Kd (HLA-A*03:01; [4]): 0.136 µM; Kd (HLA-A*11:01; [4]): 0.12 µM; Kd (HLA-A*31:01; [4]): 0.907 µM; Kd (HLA-A*33:01; [4]): 7.38 µM; Kd (HLA-A*68:01; [4]): 1.14 µM
30 | VFYRSGTETK | ≥ 33.8 | ≥ 34.1 | 8.28 | 6.53 | ≥ 20.4 | 
31 | TTRLENIMWK |  |  |  |  |  | Kd (HLA-A*11:01; [1]): 0.271 µM
32 | LLLFADINGK |  |  |  |  |  | Kd (HLA-A*03:01; [4]): 0.136 µM; Kd (HLA-A*11:01; [4]): 0.508 µM; Kd (HLA-A*31:01; [4]): ≥ 24.1 µM; Kd (HLA-A*33:01; [4]): 17.2 µM; Kd (HLA-A*68:01; [4]): 9.2 µM
33 | NLKSLLLENK | 0.0888 | 0.0634 | 1.06 | 2.16 | 0.137 | 
34 | KAKWLTPFEK | 0.212 | 0.249 | 0.115 | ≥ 70 | 11.8 | 
35 | TAASAAQRR |  |  |  |  |  | Kd (HLA-A*68:01; [3]): 0.0249 µM
36 | ATAHSELAK |  |  |  |  |  | Kd (HLA-A*03:01; [4]): 0.0116 µM; Kd (HLA-A*11:01; [4]): 0.00533 µM; Kd (HLA-A*31:01; [4]): 18.5 µM; Kd (HLA-A*33:01; [4]): ≥ 77.7 µM; Kd (HLA-A*68:01; [4]): 0.0192 µM
37 | QLLMPLKAPK |  |  |  |  |  | Kd (HLA-A*03:01; [4]): 0.1 µM; Kd (HLA-A*11:01; [4]): 0.146 µM; Kd (HLA-A*31:01; [4]): 0.134 µM; Kd (HLA-A*33:01; [4]): 2.29 µM; Kd (HLA-A*68:01; [4]): 1.53 µM
38 | SSSLDQTHIK |  |  |  |  |  | Kd (HLA-A*03:01; [8]): 0.09 µM; Kd (HLA-A*11:01; [8]): 0.00492 µM; Kd (HLA-A*31:01; [8]): 0.868 µM; Kd (HLA-A*33:01; [8]): ≥ 26 µM; Kd (HLA-A*68:01; [8]): 0.85 µM

Reference: the Immune Epitope Database (IEDB)
